Paper PMC9039736, “Identifying novel SMYD3 interactors on the trail of cancer hallmarks” (Computational and Structural Biotechnology Journal, 2022)

B1: HIS-SMYD3-FL (natural protein, human, UniProt Q9H7B4 1-428, looked up)
chain: MEPLKVEKFATAKRGNGLRAVTPLRPGELLFRSDPLAYTVCKGSRGVVCDRCLLGKEKLMRCSQCRVAKYCSAKCQKKAWPDHKRECKCLKSCKPRYPPDSVRLLGRVVFKLMDGAPSESEKLYSFYDLESNINKLTEDKKEGLRQLVMTFQHFMREEIQDASQLPPAFDLFEAFAKVICNSFTICNAEMQEVGVGLYPSISLLNHSCDPNCSIVFNGPHLLLRAVRDIEVGEELTICYLDMLMTSEERRKQLRDQYCFECDCFRCQTQDKDADMLTGDEQVWKEVQESLKKIEELKAHWKWEQVLAMCQAIISSNSERLPDINIYQLKVLDCAMDACINLGLLEEALFYGTRTMEPYRIFFPGSHPVRGVQVMKVGKLQLHQGMFPQAMKNLRLAFDIMRVTHGREHSLIEDLILLLEECDANIRAS
notes: SMYD3, human, full length (constructs count to residue 428); also called HIS-SMYD3-FL (full length); source: recombinant human protein
B2: HIS-SMYD3-C-term(236–428) (domain or fragment, human, UniProt Q9H7B4 236-428, looked up)
chain: TICYLDMLMTSEERRKQLRDQYCFECDCFRCQTQDKDADMLTGDEQVWKEVQESLKKIEELKAHWKWEQVLAMCQAIISSNSERLPDINIYQLKVLDCAMDACINLGLLEEALFYGTRTMEPYRIFFPGSHPVRGVQVMKVGKLQLHQGMFPQAMKNLRLAFDIMRVTHGREHSLIEDLILLLEECDANIRAS
notes: SMYD3, human, residues 236-428, comprises the CT domain; source: recombinant human protein
B3: HIS-SMYD3-N-term(1–235) (domain or fragment, human, UniProt Q9H7B4 1-235, looked up)
chain: MEPLKVEKFATAKRGNGLRAVTPLRPGELLFRSDPLAYTVCKGSRGVVCDRCLLGKEKLMRCSQCRVAKYCSAKCQKKAWPDHKRECKCLKSCKPRYPPDSVRLLGRVVFKLMDGAPSESEKLYSFYDLESNINKLTEDKKEGLRQLVMTFQHFMREEIQDASQLPPAFDLFEAFAKVICNSFTICNAEMQEVGVGLYPSISLLNHSCDPNCSIVFNGPHLLLRAVRDIEVGEEL
notes: SMYD3, human, residues 1-235, comprises the SET domain; source: recombinant human protein

What follows are binders tested against T1, GST-BRCA2(1338–1781) (human, UniProt P51587 1338-1781) (assay: pull-down; 200 ng HIS-SMYD3 construct with 500 ng GST-BRCA2(1338-1781), 1 h at 4 °C; precipitated by Dynabeads HIS-Tag Isolation and Pulldown; washed in buffer A (20 mM Tris-HCl pH 8, 150 mM KCl, 5 mM MgCl2, 0.2 mM EDTA, 10% glycerol, 0.1% NP-40, 1 mM DTT); immunoblot anti-GST and anti-HIS). Conditions: both partners purified.
T1 construct: one of nine GST fusion proteins spanning the entire coding region of BRCA2; source: recombinant GST fusion protein
T1 sequence (P51587 1338-1781): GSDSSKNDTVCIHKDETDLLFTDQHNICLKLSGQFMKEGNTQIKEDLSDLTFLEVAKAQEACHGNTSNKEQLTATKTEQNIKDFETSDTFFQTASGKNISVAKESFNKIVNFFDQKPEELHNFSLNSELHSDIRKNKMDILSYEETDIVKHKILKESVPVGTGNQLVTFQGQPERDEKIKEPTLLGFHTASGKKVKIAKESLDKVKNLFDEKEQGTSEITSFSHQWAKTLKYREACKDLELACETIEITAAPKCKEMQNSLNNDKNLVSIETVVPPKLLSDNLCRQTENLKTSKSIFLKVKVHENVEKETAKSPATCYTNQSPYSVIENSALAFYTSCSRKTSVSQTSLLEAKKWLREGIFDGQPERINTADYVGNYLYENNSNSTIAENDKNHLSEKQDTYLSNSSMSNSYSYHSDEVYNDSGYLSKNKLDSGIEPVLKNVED

| binding result | Binder |
| --- | --- |
| binds | B1 |
| binds | B2 |
| binds | B3 |
